Sequences and labels used below:
B1: GpH7-B3 variant P331_06M/GpL16-k0 (antibody, human IgG1, kappa)
heavy: not shown
light: DIVMTQSPLSLPVTPGEPASISCQASESLVHSNRNTYLHWYLQKPGQSPQLLIYKVSNRFSGVPDRFSGSGSGTDFTLKISRVEAEDVGVYYCSQNTHVPPTFGQGTKVEIERTVAAPSVFIFPPSDEQLKSGTASVVCLLNNFYPREAKVQWKVDNALQSGNSQESVTEQDSKDSTYSLSSTLTLSKADYEKHKVYACEVTHQGLSSPVTKSFNRGEC
notes: homodimerized antibody, mutation in both H chains; also called Ho Ab
B2: GpH7-B3 variant S324_04F/GpL16-k0 (antibody, human IgG1, kappa)
heavy: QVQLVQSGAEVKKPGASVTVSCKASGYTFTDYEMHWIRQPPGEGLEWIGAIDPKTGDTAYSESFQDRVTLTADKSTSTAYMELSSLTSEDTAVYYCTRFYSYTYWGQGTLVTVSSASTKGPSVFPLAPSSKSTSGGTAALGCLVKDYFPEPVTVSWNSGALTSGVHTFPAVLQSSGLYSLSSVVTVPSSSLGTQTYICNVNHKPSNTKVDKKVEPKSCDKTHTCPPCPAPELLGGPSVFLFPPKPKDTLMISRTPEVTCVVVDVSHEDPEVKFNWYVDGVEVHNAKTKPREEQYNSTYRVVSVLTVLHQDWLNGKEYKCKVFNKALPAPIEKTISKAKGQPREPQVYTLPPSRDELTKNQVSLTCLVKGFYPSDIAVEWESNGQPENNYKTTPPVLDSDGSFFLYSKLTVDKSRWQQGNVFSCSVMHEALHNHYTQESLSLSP
light: B1 light
notes: as for B1
B3: GpH7-B3 variant S337_06M/GpL16-k0 (antibody, human IgG1, kappa)
heavy: not shown
light: B1 light
notes: as for B1
B4: GpH7-B3 variant Y296_04F/GpL16-k0 (antibody, human IgG1, kappa)
heavy: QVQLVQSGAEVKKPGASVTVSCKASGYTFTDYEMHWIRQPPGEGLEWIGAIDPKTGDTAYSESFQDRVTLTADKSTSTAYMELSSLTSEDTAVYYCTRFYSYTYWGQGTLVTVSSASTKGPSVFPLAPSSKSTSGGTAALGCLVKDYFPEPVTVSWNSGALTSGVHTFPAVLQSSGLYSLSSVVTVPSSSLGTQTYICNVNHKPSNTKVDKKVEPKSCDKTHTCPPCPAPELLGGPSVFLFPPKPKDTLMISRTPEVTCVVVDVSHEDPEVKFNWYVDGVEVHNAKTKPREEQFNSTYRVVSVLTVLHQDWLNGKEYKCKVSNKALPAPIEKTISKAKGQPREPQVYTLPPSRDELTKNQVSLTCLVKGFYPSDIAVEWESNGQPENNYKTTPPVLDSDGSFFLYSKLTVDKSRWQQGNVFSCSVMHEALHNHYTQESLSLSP
light: B1 light
notes: as for B1
B5: GpH7-B3 variant Y296_07I/GpL16-k0 (antibody, human IgG1, kappa)
heavy: not shown
light: B1 light
notes: as for B1
B6: GpH7-B3 variant S337_11K/GpL16-k0 (antibody, human IgG1, kappa)
heavy: not shown
light: B1 light
notes: as for B1
B7: GpH7-B3 variant Q295_06M/GpL16-k0 (antibody, human IgG1, kappa)
heavy: not shown
light: B1 light
notes: as for B1
B8: GpH7-B3 variant S298_06M/GpL16-k0 (antibody, human IgG1, kappa)
heavy: not shown
light: B1 light
notes: as for B1
B9: GpH7-B3 variant T335_13S/GpL16-k0 (antibody, human IgG1, kappa)
heavy: not shown
light: B1 light
notes: as for B1
B10: GpH7-B3 variant P331_07I/GpL16-k0 (antibody, human IgG1, kappa)
heavy: not shown
light: B1 light
notes: as for B1
B11: GpH7-B3 variant T335_10E/GpL16-k0 (antibody, human IgG1, kappa)
heavy: not shown
light: B1 light
notes: as for B1
B12: GpH7-B3 variant T335_02A/GpL16-k0 (antibody, human IgG1, kappa)
heavy: not shown
light: B1 light
notes: as for B1
B13: GpH7-B3 variant S337_08L/GpL16-k0 (antibody, human IgG1, kappa)
heavy: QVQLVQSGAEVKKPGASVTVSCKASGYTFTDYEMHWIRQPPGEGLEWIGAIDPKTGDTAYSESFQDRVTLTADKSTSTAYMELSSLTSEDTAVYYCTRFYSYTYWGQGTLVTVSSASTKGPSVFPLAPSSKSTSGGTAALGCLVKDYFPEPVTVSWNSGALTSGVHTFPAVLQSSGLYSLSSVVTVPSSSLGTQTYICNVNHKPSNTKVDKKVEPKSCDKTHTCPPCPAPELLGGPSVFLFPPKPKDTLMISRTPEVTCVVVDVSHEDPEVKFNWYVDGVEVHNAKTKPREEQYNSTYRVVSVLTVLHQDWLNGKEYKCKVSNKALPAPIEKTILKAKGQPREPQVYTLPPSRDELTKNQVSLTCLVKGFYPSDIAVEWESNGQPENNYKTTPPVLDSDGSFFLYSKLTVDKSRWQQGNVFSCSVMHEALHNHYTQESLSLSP
light: B1 light
notes: as for B1
B14: GpH7-B3 variant S337_12R/GpL16-k0 (antibody, human IgG1, kappa)
heavy: not shown
light: B1 light
notes: as for B1
B15: GpH7-B3 variant P331_14T/GpL16-k0 (antibody, human IgG1, kappa)
heavy: not shown
light: B1 light
notes: as for B1
B16: GpH7-B3 variant S337_10E/GpL16-k0 (antibody, human IgG1, kappa)
heavy: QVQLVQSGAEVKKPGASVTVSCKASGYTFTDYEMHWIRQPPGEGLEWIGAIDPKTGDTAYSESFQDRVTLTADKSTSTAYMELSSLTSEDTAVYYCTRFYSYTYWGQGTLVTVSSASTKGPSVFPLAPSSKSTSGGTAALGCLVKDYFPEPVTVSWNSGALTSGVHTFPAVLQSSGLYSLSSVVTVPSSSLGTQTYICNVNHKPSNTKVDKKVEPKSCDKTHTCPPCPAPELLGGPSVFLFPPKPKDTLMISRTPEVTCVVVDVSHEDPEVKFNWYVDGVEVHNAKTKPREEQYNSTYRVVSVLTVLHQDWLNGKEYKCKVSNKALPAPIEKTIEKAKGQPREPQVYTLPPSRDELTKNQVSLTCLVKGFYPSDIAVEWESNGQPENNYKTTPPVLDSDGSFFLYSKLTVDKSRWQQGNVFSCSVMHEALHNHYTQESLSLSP
light: B1 light
notes: as for B1
B17: GpH7-B3 variant S337_07I/GpL16-k0 (antibody, human IgG1, kappa)
heavy: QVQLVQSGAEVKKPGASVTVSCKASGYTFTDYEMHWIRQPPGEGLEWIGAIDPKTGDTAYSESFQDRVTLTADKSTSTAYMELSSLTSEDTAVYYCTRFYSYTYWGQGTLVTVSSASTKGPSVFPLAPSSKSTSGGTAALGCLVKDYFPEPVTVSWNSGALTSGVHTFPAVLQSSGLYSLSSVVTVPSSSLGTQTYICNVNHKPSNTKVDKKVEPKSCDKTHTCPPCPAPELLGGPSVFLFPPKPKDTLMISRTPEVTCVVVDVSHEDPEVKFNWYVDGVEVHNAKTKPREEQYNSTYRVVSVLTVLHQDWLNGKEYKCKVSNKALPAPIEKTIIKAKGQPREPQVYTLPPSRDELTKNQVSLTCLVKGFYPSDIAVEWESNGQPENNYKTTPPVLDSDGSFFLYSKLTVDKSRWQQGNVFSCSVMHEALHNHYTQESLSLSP
light: B1 light
notes: as for B1
B18: GpH7-B3 variant P331_09D/GpL16-k0 (antibody, human IgG1, kappa)
heavy: not shown
light: B1 light
notes: as for B1
B19: GpH7-B3 variant S239_06M/GpL16-k0 (antibody, human IgG1, kappa)
heavy: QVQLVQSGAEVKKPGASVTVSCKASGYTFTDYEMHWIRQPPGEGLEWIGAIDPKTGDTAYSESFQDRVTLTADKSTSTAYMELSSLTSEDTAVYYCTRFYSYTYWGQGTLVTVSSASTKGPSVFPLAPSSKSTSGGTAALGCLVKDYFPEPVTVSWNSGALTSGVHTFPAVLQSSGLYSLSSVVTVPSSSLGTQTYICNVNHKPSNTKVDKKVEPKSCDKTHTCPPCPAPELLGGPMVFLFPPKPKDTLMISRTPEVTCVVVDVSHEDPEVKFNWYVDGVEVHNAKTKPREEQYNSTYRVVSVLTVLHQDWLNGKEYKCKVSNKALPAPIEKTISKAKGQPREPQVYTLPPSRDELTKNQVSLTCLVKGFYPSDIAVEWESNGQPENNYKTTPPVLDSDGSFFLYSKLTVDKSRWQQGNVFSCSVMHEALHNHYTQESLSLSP
light: B1 light
notes: as for B1
B20: GpH7-B3 variant Y296_09D/GpL16-k0 (antibody, human IgG1, kappa)
heavy: not shown
light: B1 light
notes: as for B1
B21: GpH7-B3 variant S337_03V/GpL16-k0 (antibody, human IgG1, kappa)
heavy: not shown
light: B1 light
notes: as for B1
B22: GpH7-B3 variant T335_07I/GpL16-k0 (antibody, human IgG1, kappa)
heavy: not shown
light: B1 light
notes: as for B1
B23: GpH7-B3 variant S239_07I/GpL16-k0 (antibody, human IgG1, kappa)
heavy: not shown
light: B1 light
notes: as for B1
B24: GpH7-B3 variant P331_08L/GpL16-k0 (antibody, human IgG1, kappa)
heavy: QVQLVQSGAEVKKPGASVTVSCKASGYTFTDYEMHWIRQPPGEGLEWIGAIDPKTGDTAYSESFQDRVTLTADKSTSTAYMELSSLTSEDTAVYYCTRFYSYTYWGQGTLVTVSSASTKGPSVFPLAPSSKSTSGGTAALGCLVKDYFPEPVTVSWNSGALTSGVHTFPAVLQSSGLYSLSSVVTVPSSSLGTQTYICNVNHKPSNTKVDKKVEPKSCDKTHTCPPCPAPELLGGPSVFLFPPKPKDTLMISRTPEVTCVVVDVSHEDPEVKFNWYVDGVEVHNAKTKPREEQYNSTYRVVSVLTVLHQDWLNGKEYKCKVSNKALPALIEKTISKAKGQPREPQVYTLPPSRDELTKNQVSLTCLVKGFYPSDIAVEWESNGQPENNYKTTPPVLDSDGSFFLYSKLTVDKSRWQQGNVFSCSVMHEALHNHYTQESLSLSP
light: B1 light
notes: as for B1
B25: GpH7-B3 variant T335_12R/GpL16-k0 (antibody, human IgG1, kappa)
heavy: not shown
light: B1 light
notes: as for B1
B26: GpH7-B3 variant S337_09D/GpL16-k0 (antibody, human IgG1, kappa)
heavy: not shown
light: B1 light
notes: as for B1
B27: GpH7-B3 variant T335_16H/GpL16-k0 (antibody, human IgG1, kappa)
heavy: not shown
light: B1 light
notes: as for B1
B28: GpH7-B3 variant S337_18N/GpL16-k0 (antibody, human IgG1, kappa)
heavy: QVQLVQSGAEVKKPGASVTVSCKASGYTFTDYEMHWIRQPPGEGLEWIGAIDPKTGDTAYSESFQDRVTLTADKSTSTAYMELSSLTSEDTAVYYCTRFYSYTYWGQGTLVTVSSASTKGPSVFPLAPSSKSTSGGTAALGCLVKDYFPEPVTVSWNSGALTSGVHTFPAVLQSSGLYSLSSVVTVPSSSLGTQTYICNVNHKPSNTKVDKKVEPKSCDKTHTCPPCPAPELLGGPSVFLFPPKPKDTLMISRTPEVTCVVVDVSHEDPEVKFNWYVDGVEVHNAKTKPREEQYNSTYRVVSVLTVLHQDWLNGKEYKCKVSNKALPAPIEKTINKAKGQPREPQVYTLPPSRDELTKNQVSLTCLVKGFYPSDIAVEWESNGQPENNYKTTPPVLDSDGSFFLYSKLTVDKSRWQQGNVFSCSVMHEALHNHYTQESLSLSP
light: B1 light
notes: as for B1
B29: GpH7-B3 variant S267_19Q/GpL16-k0 (antibody, human IgG1, kappa)
heavy: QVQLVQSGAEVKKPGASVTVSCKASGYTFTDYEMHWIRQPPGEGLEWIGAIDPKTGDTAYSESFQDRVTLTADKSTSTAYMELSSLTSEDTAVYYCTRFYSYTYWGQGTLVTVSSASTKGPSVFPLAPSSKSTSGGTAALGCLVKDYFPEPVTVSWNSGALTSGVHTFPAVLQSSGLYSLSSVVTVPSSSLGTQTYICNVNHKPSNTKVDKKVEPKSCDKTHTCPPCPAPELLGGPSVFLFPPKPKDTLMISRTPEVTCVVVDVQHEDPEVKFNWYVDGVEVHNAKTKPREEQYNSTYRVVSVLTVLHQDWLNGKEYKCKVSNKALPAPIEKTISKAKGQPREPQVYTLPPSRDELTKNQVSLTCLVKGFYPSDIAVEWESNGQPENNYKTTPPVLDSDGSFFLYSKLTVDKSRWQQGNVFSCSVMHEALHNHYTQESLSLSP
light: B1 light
notes: as for B1
B30: GpH7-B3 variant T335_18N/GpL16-k0 (antibody, human IgG1, kappa)
heavy: not shown
light: B1 light
notes: as for B1
B31: GpH7-B3 variant S267_09D/GpL16-k0 (antibody, human IgG1, kappa)
heavy: not shown
light: B1 light
notes: as for B1
B32: GpH7-B3 variant S337_04F/GpL16-k0 (antibody, human IgG1, kappa)
heavy: not shown
light: B1 light
notes: as for B1
B33: GpH7-B3 variant S337_16H/GpL16-k0 (antibody, human IgG1, kappa)
heavy: not shown
light: B1 light
notes: as for B1
B34: GpH7-B3 variant P331_13S/GpL16-k0 (antibody, human IgG1, kappa)
heavy: not shown
light: B1 light
notes: as for B1
B35: GpH7-B3 variant S337_20W/GpL16-k0 (antibody, human IgG1, kappa)
heavy: not shown
light: B1 light
notes: as for B1
B36: GpH7-B3 variant P331_18N/GpL16-k0 (antibody, human IgG1, kappa)
heavy: not shown
light: B1 light
notes: as for B1
B37: GpH7-B3 variant S267_06M/GpL16-k0 (antibody, human IgG1, kappa)
heavy: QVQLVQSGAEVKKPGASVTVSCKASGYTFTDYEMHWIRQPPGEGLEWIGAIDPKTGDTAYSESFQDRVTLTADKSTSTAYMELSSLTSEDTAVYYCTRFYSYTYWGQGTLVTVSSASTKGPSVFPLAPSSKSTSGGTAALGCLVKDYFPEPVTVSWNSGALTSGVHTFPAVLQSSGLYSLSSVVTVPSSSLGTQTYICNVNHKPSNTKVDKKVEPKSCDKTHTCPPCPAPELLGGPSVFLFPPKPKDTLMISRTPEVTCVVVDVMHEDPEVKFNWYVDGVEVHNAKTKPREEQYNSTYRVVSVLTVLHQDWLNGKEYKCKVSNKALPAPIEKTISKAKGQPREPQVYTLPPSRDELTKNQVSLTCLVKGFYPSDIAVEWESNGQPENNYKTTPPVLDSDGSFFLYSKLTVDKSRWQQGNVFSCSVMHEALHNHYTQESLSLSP
light: B1 light
notes: as for B1
B38: GpH7-B3 variant T335_15Y/GpL16-k0 (antibody, human IgG1, kappa)
heavy: not shown
light: B1 light
notes: as for B1
B39: GpH7-B3 variant V266_06M/GpL16-k0 (antibody, human IgG1, kappa)
heavy: not shown
light: B1 light
notes: as for B1
B40: GpH7-B3 variant S337_19Q/GpL16-k0 (antibody, human IgG1, kappa)
heavy: not shown
light: B1 light
notes: as for B1
B41: GpH7-B3 variant S324_06M/GpL16-k0 (antibody, human IgG1, kappa)
heavy: not shown
light: B1 light
notes: as for B1
B42: GpH7-B3 variant T335_20W/GpL16-k0 (antibody, human IgG1, kappa)
heavy: not shown
light: B1 light
notes: as for B1
B43: GpH7-B3 variant T335_19Q/GpL16-k0 (antibody, human IgG1, kappa)
heavy: not shown
light: B1 light
notes: as for B1
B44: GpH7-B3 variant T335_01G/GpL16-k0 (antibody, human IgG1, kappa)
heavy: not shown
light: B1 light
notes: as for B1
B45: GpH7-B3 variant S239_14T/GpL16-k0 (antibody, human IgG1, kappa)
heavy: not shown
light: B1 light
notes: as for B1
B46: GpH7-B3 variant P331_10E/GpL16-k0 (antibody, human IgG1, kappa)
heavy: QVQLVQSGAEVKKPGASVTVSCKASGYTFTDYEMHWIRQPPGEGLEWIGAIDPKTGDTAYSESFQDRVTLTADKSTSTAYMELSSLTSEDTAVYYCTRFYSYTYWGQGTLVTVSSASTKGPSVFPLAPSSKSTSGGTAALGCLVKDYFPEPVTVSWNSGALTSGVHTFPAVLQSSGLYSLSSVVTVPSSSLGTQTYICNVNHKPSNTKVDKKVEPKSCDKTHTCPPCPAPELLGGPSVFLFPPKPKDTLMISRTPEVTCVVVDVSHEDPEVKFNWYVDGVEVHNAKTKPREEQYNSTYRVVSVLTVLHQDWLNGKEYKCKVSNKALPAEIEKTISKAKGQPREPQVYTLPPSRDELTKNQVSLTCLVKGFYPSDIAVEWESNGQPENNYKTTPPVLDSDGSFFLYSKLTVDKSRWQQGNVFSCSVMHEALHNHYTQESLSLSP
light: B1 light
notes: as for B1
B47: GpH7-B3 variant S337_15Y/GpL16-k0 (antibody, human IgG1, kappa)
heavy: not shown
light: B1 light
notes: as for B1
B48: GpH7-B3 variant Q295_10E/GpL16-k0 (antibody, human IgG1, kappa)
heavy: not shown
light: B1 light
notes: as for B1
B49: GpH7-B3 variant T335_05P/GpL16-k0 (antibody, human IgG1, kappa)
heavy: not shown
light: B1 light
notes: as for B1
B50: GpH7-B3 variant Y296_06M/GpL16-k0 (antibody, human IgG1, kappa)
heavy: not shown
light: B1 light
notes: as for B1
B51: GpH7-B3 variant S298_08L/GpL16-k0 (antibody, human IgG1, kappa)
heavy: not shown
light: B1 light
notes: as for B1

The assay has as its target T1, FcγRIIa R (human FcγRIIa, allotype R, Arg at position 131), extracellular domain with C-terminal His tag (human, UniProt P12318 34-217).
T1 construct: extracellular domain; expressed in FreeStyle293 cells; analyte in Biacore; also called 2aR; FcgRIIa R
T1 sequence (looked up): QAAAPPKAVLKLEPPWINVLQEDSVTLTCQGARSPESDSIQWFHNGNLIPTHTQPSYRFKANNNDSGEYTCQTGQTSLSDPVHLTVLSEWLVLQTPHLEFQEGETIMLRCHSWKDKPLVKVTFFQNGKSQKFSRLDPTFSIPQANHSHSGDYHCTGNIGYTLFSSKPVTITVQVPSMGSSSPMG
The assay can be described thus: SPR (Biacore), relative binding vs GpH7-B3/GpL16-k0. On the procedure: Analysis of interaction between objective antibody and the FcγR was carried out using Biacore T100 (GE Healthcare). HBS-EP+ (GE Healthcare) was used as the running buffer, and the measurement temperature was set to 25° C. Chips produced by immobilizing the antigen peptide by the amine coupling method to a Series S Sencor Chip CM5 (GE Healthcare), or alternatively, chips produced by allowing preliminarily biotinylated antigen peptides to interact with and immobilize onto a Series S Sensor Chip SA (certified) (GE Healthcare) were used. Antibodies of interest were captured onto an antigen peptide-immobilized chip, and allowed to interact to each FcγR diluted with running buffer. To regenerate and repeatedly use the chip, the antibodies captured on the chip were washed off by reacting 10 mM glycine-HCl, pH 1.5.
The FcγR-binding activity of each antibody was assessed primarily using as an indicator the FcγR-binding activity and dissociation constant for FcγR.
For B1, the Ho/Con_2aR was 79.8 relative, control = 100. Take B2: the Ho/Con_2aR was 101 relative, control = 100.

As for B3, the Ho/Con_2aR is 101 relative, control = 100.

With B4, the Ho/Con_2aR was 106 relative, control = 100.

Consider B5, for which the Ho/Con_2aR was 83.1 relative, control = 100. The value for B6 was 94.6 relative, control = 100; that for B7 was 93.9 relative, control = 100; that for B8 was 102 relative, control = 100. The value for B9 was 102 relative, control = 100. The value for B10 was 67 relative, control = 100; that for B11 was 109 relative, control = 100; that for B12 was 102 relative, control = 100.

Consider B13, for which the Ho/Con_2aR was 99.4 relative, control = 100. On to B14, for which the Ho/Con_2aR is 100 relative, control = 100.

For the molecule B15, the Ho/Con_2aR is 80.8 relative, control = 100. The value for B16 was 110 relative, control = 100. Regarding B17, the Ho/Con_2aR is 103 relative, control = 100. To B18 belongs 88.8 relative, control = 100; to B19, 82.9 relative, control = 100. Consider B20, for which the Ho/Con_2aR was 94.5 relative, control = 100. To B21 belongs 102 relative, control = 100; to B22, 107 relative, control = 100; to B23, 85.3 relative, control = 100. To B24 belongs 74.4 relative, control = 100. The value for B25 was 94 relative, control = 100; that for B26 was 114 relative, control = 100. Turning to B27, the Ho/Con_2aR was 102 relative, control = 100. To B28 belongs 103 relative, control = 100; to B29, 110 relative, control = 100; to B30, 100 relative, control = 100. As for B31, the Ho/Con_2aR was 167 relative, control = 100. The value for B32 was 98.3 relative, control = 100. The value for B33 was 107 relative, control = 100. The value for B34 was 87.8 relative, control = 100; that for B35 was 105 relative, control = 100. With B36, the Ho/Con_2aR was 76.9 relative, control = 100. Regarding B37, the Ho/Con_2aR was 102 relative, control = 100.

For the molecule B38, the Ho/Con_2aR was 107 relative, control = 100. As for B39, the Ho/Con_2aR was 146 relative, control = 100. To B40 belongs 102 relative, control = 100. The value for B41 was 118 relative, control = 100; that for B42 was 101 relative, control = 100. To B43 belongs 102 relative, control = 100. Turning to B44, the Ho/Con_2aR is 97.7 relative, control = 100. The value for B45 was 92.3 relative, control = 100; that for B46 was 94.6 relative, control = 100; that for B47 was 100 relative, control = 100. To B48 belongs 99.2 relative, control = 100; to B49, 104 relative, control = 100; to B50, 84 relative, control = 100. To B51 belongs 101 relative, control = 100.

Source of the values: patent US20180155451A1 (published 2018).
